Assay results published in patent publication US20170290876A1 (Novartis, published 2017).
Values belong to the binder of their own block, whether it stands above or below them.

How the values were obtained:
human TNFα [1] = target: T1, human TNFα (human, UniProt P01375 77-233, biotinylated (site not stated)); test: Biacore SPR, Hu TNFα-biotin, 37 C
T1 construct: also called TNFα-biotin; Hu TNFα-biotin

human TNFα [2] = target: T1, human TNFα; test: Biacore SPR, TNFα-biotin, 37 C
Experimental: In order to determine target kinetics, two different formats were utilized. […] The second format is an anti-fab capture method in which the fab protein samples are captured and the target proteins flowed over at various concentrations.
(§1) The sample compartment which includes the analytes, ligands, and regeneration buffer, is kept at 15° C. All other running conditions were carried out at either 25° C. or 37° C. in 1×HBSE+P buffer. […] Data was collected at 10 Hz and analyzed using the Biacore T200 Evaluation Software (GE Healthcare®). This program uses a global fitting analysis method for the determination of rate and affinity constants for each interaction.

human TNFα [3] = target: T1, human TNFα; test: Biacore SPR; affinity of NVS73T against untagged NVS73
human VEGF [4] = target: T2, human VEGF (human, UniProt P15692 207-395, biotinylated (site not stated)); test: Biacore SPR, hVEGF (second row labelled Y32H); the sign of the exponent is misprinted (kd/KD of the same row = 4.9e6); second row labelled Y32H (r159), not r156
T2 construct: Biotinylated human VEGF generated internally; also called hVEGF; hVEGF-biotin
T2 sequence: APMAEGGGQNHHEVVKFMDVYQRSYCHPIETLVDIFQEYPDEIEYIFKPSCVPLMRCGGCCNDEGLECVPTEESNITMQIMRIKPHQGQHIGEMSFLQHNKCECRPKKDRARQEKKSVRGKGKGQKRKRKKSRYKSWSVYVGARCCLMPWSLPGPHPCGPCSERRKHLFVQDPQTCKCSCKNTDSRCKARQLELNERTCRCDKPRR

human VEGF [5] = target: T2, human VEGF; test: Biacore SPR, hVEGF (second row labelled Y32H)
Experimental: (§2) At first, individual CDR residues were substituted and the affinity for hVEGF was measured by Biacore as described below. […] HC8T, and HC9T and the affinity of the resulting peptide-tagged Fab for both HA and hVEGF was measured by Biacore as described below (Table 17).
(§3) Affinity of optimized HA-binding peptide tags for HA and human VEGF were measured by Biacore. […] In order to determine target kinetics, two different formats were utilized. […] The second format is an anti-fab capture method in which the fab protein samples are captured and the target proteins flowed over at various concentrations.
as §1

human VEGF [6] = target: T2, human VEGF; test: Biacore SPR, hVEGF
Experimental: as §2, §3, §1

human VEGF [7] = target: T2, human VEGF; test: Biacore SPR, hVEGF; the minus sign of the exponent is missing in print (kd/ka of the same row = 3.05e-12)
Experimental: as §2, §3, §1

human Factor P [8] = target: T3, human Factor P (human, UniProt P27918 28-469, biotinylated (site not stated)); test: Biacore SPR, Hu factor P-biotin, 37 C
T3 construct: also called Factor P-biotin; Hu factor P-biotin
T3 sequence (P27918 28-469 limits assumed): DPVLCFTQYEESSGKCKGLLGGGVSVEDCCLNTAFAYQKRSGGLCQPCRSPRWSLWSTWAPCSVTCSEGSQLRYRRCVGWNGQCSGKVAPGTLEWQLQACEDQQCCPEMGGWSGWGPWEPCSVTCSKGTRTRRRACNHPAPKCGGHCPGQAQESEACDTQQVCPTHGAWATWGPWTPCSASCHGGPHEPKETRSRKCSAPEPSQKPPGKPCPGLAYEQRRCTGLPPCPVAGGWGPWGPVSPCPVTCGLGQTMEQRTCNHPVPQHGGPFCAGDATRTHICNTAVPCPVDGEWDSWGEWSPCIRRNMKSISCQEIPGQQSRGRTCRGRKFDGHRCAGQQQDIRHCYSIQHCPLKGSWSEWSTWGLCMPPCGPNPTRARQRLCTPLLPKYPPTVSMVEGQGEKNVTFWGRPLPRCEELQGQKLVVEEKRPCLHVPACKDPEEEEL

human Factor P [9] = target: T3, human Factor P; test: Biacore SPR, Factor P-biotin, 25 C
human Factor P [10] = target: T3, human Factor P; test: Biacore SPR; affinity of NVS71T against untagged NVS71

T1 sequence (P01375 77-233 limits assumed): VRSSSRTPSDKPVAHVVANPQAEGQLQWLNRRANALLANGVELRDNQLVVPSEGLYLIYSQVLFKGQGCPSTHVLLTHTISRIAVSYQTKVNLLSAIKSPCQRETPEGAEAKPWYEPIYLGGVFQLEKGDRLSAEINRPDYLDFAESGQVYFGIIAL

B2: NVS4 heavy chain variant Y32H (Fab, V domains shown)
VH: EVQLVESGGGLVQPGGSLRLSCTASGFSLTDHYYMTWVRQAPGKGLEWVGFIDPDDDPYYATWAKGRFTISRDNSKNTLYLQMNSLRAEDTAVYYCAGGDHNSGWGLDIWGQGTLVTVSS
VL: EIVMTQSPSTLSASVGDRVIITCQASEIIHSWLAWYQQKPGKAPKLLIYLASTLASGVPSRFSGSGSGAEFTLTISSLQPDDFATYYCQNVYLASTNGANFGQGTKLTVLK
notes: CDR variant of NVS4; The label Y32H is printed in two rows (r156, r159) with different values
kon (human VEGF [4]): 4.91e+06 M⁻¹ s⁻¹
Kd (human VEGF [5]): 169 pM
koff (human VEGF [5]): 0.000829 s⁻¹
Kd (human VEGF [6]): 20.4 pM
koff (human VEGF [6]): 0.000112 s⁻¹
kon (human VEGF [6]): 5.49e+06 M⁻¹ s⁻¹

B3: NVS4 light chain variant E27Q (Fab, V domains shown)
VH: EVQLVESGGGLVQPGGSLRLSCTASGFSLTDYYYMTWVRQAPGKGLEWVGFIDPDDDPYYATWAKGRFTISRDNSKNTLYLQMNSLRAEDTAVYYCAGGDHNSGWGLDIWGQGTLVTVSS
VL: EIVMTQSPSTLSASVGDRVIITCQASQIIHSWLAWYQQKPGKAPKLLIYLASTLASGVPSRFSGSGSGAEFTLTISSLQPDDFATYYCQNVYLASTNGANFGQGTKLTVLK
notes: CDR variant of NVS4
koff (human VEGF [6]): 1.64e-05 s⁻¹
kon (human VEGF [6]): 5.37e+06 M⁻¹ s⁻¹
Kd (human VEGF [7]): 3.06 pM

The remaining lines, values ahead:

Kd (human TNFα [1]): 0.742 pM
koff (human TNFα [1]): 2.47e-05 s⁻¹
kon (human TNFα [1]): 3.33e+07 M⁻¹ s⁻¹
Kd (human TNFα [2]): 0.742 pM
koff (human TNFα [2]): 2.47e-05 s⁻¹
kon (human TNFα [2]): 3.33e+07 M⁻¹ s⁻¹
Fold improvement (human TNFα [3]): 35 fold
B1: NVS73T (Fab, V domains shown)
VH: EVQLVESGGGSVQPGGSLRLSCTASGFTISRSYWICWVRQAPGKGLEWVGCIYGDNDITPLYANWAKGRFTISRDTSKNTVYLQMNSLRAEDTATYYCARLGYADYAYDLWGQGTTVTVSS
VL: EIVMTQSPSTLSASVGDRVIITCQSSQSVYGNIWMAWYQQKPGRAPKLLIYQASKLASGVPSRFSGSGSGAEFTLTISSLQPDDFATYYCQGNFNTGDRYAFGQGTKLTVLK
notes: Anti-TNFα Fab with HA tag at heavy chain C-terminus

Kd (human Factor P [8]): 95.5 pM
koff (human Factor P [8]): 0.000412 s⁻¹
kon (human Factor P [8]): 4.31e+06 M⁻¹ s⁻¹
Kd (human Factor P [9]): 95.5 pM
koff (human Factor P [9]): 0.000412 s⁻¹
kon (human Factor P [9]): 4.31e+06 M⁻¹ s⁻¹
Fold improvement (human Factor P [10]): 5.7 fold
B4: NVS71T (Fab, V domains shown)
VH: EVQLVQSGAEVKKPGSSVKVSCKASGGTFSSYAISWVRQAPGQGLEWMGRIIPIFGTANYAQKFQGRVTITADESTSTAYMELSSLRSEDTAVYYCARHGGYSFDSWGQGTLVTVSS
VL: SYELTQPPSVSVAPGQTARISCSGDNLGSKYVDWYQQKPGQAPVLVIYSDNNRPSGIPERFSGSNSGNTATLTISGTQAEDEADYYCQTYTSGNNYLVFGGGTKLTVLG
notes: Anti-Factor P Fab with HA tag at heavy chain C-terminus
